Assay results taken from paper PMC2191090 (The Journal of Experimental Medicine, 1993).
One block for each molecule: values may come before it. Where no end group is shown, it is not given here. The star is where a group is joined. Biotin = O=C1N[C@H]2[C@H](CS[C@H]2CCCCC(=O)*)N1; 22‑Å spacer = not defined here

How the values were obtained:
[1] = molecular target: HLA-DR4 (DRB1*0401) on Priess cells (human (endogenous in Priess)); assay: flow cytometry on cells
[2] = molecular target: HLA-DR7 (DRB1*0701) on Mann cells (human (endogenous in Mann)); assay: flow cytometry on cells
surface-expressed HLA-DR = assay: Specificity of peptide binding to surface-expressed HLA-DR; design: species or system human; details: amino-terminal biotin via 22-A spacer
[3] = molecular target: HLA-DR1 (DRB1*0101) on LG-2 cells (human (endogenous in LG-2)); assay: flow cytometry on cells
[4] = molecular target: HLA-DR2 (DRB1*1501/DRB5*0101) on MST cells (human (endogenous in MST)); assay: flow cytometry on cells
[5] = molecular target: HLA-DR3 (DRB1*0301) on WT-20 cells (human (endogenous in WT-20)); assay: flow cytometry on cells
[6] = molecular target: HLA-DR8 (DRB1*0801) on 23.1 cells (human (endogenous in 23.1)); assay: flow cytometry on cells

- relative mean log fluorescence [1]: 189
- relative mean log fluorescence [2]: 171
Molecule: biotinylated synthetic Ig kappa chain C region peptide 188-202

Molecule: VGSDWRFLRGYHQYA [HLA-A2-1ike peptide 103-117]
- effect of biotinylation on binding (in words) (surface-expressed HLA-DR): interfered with the normal mode of binding

- relative mean log fluorescence [1]: 215
- relative mean log fluorescence [2]: 288
B1: biotinylated synthetic invariant chain (Ii) peptide 97-120 (peptide)
peptide: {Biotin-22‑Å spacer}-LPKPPKPVSKMRMATPLLMQALPM
modifications: reading uncertain

- relative mean log fluorescence [3]: 345
- relative mean log fluorescence [4]: 148
- relative mean log fluorescence [5]: 176
- relative mean log fluorescence [6]: 172
- relative mean log fluorescence [1]: 189
B2: biotinylated synthetic HLA-DR alpha chain peptide 182-198 (peptide)
peptide: {Biotin-22‑Å spacer}-APSPLPETTENVVCALG
modifications: reading uncertain
